Measured values published in PMC8685454.

Experiments:
[1] = biological target: commercial Spike protein, active Recombinant 2019-nCoV Spike Protein, RBD, His Tag (SARS-CoV-2) (UniProt P0DTC2); experiment: ELISA
[2] = biological target: plant produced deglycosylated Receptor Binding Domain of Spike protein of SARS-CoV-2 (SARS-CoV-2) (UniProt P0DTC2); experiment: ELISA

Substance: plant produced Endo H in vivo deglycosylated soluble (truncated) human ACE2 (receptor)
- Kd [1]: 4.68 nM
- Kd [2]: 1.29 nM
